Results from PMC5173319, “Crenactin forms actin-like double helical filaments regulated by arcadin-2” (eLife, 2016).

Assays:
[1] = target: Pyrobaculum calidifontis crenactin (Pyrobaculum calidifontis) (UniProt A3MWN5); assay: SPR; crenactin immobilised by amide coupling on CM5 chip (~2300 RU), Biacore T200, PBS-0.005% Tween 20, 20°C; arcadin-1 in 1:3 dilution series from 36.7 µM; equilibrium response fitted to a single site model
[2] = target: Pyrobaculum calidifontis arcadin-1 (Pyrobaculum calidifontis); assay: AUC; sedimentation equilibrium, arcadin-1 at 49.8, 99.5 and 199 µM, 7800, 11800 and 15,000 rpm, 20°C, 25 mM Tris-HCl pH 8.0, 100 mM NaCl, 1 mM EDTA; idealised single-species model

Pyrobaculum calidifontis crenactin (Pyrobaculum calidifontis), sequence (A3MWN5 whole entry): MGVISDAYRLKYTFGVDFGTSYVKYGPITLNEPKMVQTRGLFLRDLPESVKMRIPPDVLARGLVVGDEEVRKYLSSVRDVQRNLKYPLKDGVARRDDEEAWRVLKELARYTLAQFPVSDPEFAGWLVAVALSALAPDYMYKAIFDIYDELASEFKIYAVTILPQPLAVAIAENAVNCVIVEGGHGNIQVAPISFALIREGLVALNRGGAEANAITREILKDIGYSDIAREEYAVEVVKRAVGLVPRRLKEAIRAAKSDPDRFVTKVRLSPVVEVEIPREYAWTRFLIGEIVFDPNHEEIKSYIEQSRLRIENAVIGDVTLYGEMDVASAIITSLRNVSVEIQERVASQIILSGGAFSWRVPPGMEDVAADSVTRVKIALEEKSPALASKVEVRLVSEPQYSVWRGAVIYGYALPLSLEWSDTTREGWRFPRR

- Kd [1]: 15 µM
- stoichiometry N [2]: 8
Substance: Pyrobaculum calidifontis arcadin-1 (natural protein)
